# Measured values taken from US12202861B2, “Inducible, tunable, and multiplex human gene regulation using CRISPR-Cpf1” (The General Hospital Corporation, priority 2017, dated 2025).
# B1: DmrC-p65: CAG-DmrC-NLS-FLAG-P65; DmrC dimerization domain fused to p65 activation domain (SEQ ID NO: 50) (protein)
# chain: MGSRILWHEMWHEGLEEASRLYFGERNVKGMFEVLEPLHAMMERGPQTLKETSFNQAYGRDLMEAQEWCRKYMKSGNVKDLLQAWDLYYHVFRRISKGGGSPKKKRKVSSDYKDHDGDYKDHDIDYKDDDDKAAGGGGSGSEASGSGRADALDDFDLDMLGSDALDDFDLDMLGSDALDDFDLDMLGSDALDDFDLDMLINSRSSGSPKKKRKVGSQYLPDTDDRHRIEEKRKRTYETFKSIMKKSPFSGPTDPRPPPRRIAVPSRSSASVPKPAPQPYPFTSSLSTINYDEFPTMVFPSGQISQASALAPAPPQVLPQAPAPAPAPAMVSALAQAPAPVPVLAPGPPQAVAPPAPKPTQAGEGTLSEALLQLQFDDEDLGALLGNSTDPAVFTDLASVDNSEFQQLLNQGIPVAPHTTEPMLMEYPEAITRLVTGAQRPPDPAPAPLGAPGLPNGLLSGDEDFSSIADMDFSALLGSGSGSRDSREGMFLPKPEAGSAISDVFEGREVCQPKRIRPFHPPGSPWANRPLPASLAPTPTGPVHEPVGSLTPAPVPQPLDPAPAVTPEASHLLEDPDEETSQAVKALREMADTVIPQKEEAAICGQMDLSHPPPRGHLDELTTTLESMTEDLNLDSPLTPELNEILDTFLNDECLLHAMHISTGLSIFDTSLF
# modifications: misc_feature 1..2016 MMW948: CAG-DmrC-NLS-FLAG-VPR
# Columns and labels:
# Assay type in all cases: cell-based, human
# [1] = test system: HBB; test: RT-qPCR activation of endogenous HBB gene promoter in HEK293 cells; settings: single crRNA
# Experimental: (§1) FIGS. 1A-1E. Targeted human endogenous gene regulation using individual crRNAs with dLbCpf1-based activators • (A) Schematic showing direct dLbCpf1-VPR and dLbCpf-p65 activator fusion proteins. • (B) Activities of dLbCpf1-p65 or dLbCpf1-VPR using single crRNAs at three endogenous human genes (HBB, AR, and NPY1R) in human HEK293 cells. Relative activation of the indicated gene promoters was measured by RT-qPCR. Three separate individual crRNAs were targeted within promoter sequence 1 kb upstream of the transcription start site for each gene. Relative mRNA expression is calculated by comparison to the control sample in which no crRNA is expressed. (C) Analysis of various crRNAs targeted to the human CD5 and CD22 promoters. 32 crRNAs (16 for each gene) were designed to target sites located within promoter sequences 1 kb upstream or 500 bps downstream of the TSS of each gene. Repetitive sequences were not targeted. After 72 hours post-transfection, cells were stained with fluorescently labeled antibody for CD5 or CD22 protein and fluorescent-positive cells were quantified by flow cytometry. Error bars represent s.e.m. for three biological replicates. […] (D) Schematic illustrating drug-inducible bi-partite dLbCpf1-based activator fusion proteins. dLbCpf1 is fused to one to four DmrA domains and VPR or p65 is fused to a DmrC domain. Because DmrA and DmrC interact only in the presence of an A/C-heterodimerizer drug (red diamond), the bi-partite activator is only reconstituted in the presence of the drug. (E) Activities of drug-inducible bi-partite dLbCpf1-based activators using single crRNAs at three endogenous human genes (HBB, AR, and NPY1R) in human HEK293 cells. Relative activation of the indicated gene promoters was measured by RT-qPCR. […] Data shown in (B) and (E) represent three biological independent replicates and error bars indicate standard deviation (SD) of three technical replicates.
# (§2) (A) Schematic of an expression cassette designed to express multiple gRNAs encoded on a single transcript. The arrows indicate cleavage sites being processed by the RNase activity of dLbCpf1. (B) Schematic illustrating multiplex expression of three crRNAs each targeted to a different endogenous gene promoter in a single cell. (C) Simultaneous activation of three endogenous human genes using crRNAs expressed from a multiplex transcript or from individual transcripts with dLbCpf1-VPR direct fusions (left panel), dLbCpf1-DmrA(×4) and DmrC-VPR fusions (middle panel), and dLbCpf1-DmrA(×4) and DmrC-p65 fusions (right panel). Transcripts were measured in HEK293 cells using RT-qPCR with relative mRNA expression calculated by comparison to the control sample in which no crRNA is expressed. (D) Activities of MST crRNA with different dLbCpf1-based activators in human U20S cells. Graphs showing activation of three endogenous human genes with dLbCpf1-VPR direct fusions, dLbCpf1-DmrA(×4) and DmrC-p65 fusions, and dLbCpf1-DmrA(×4) and DmrC-VPR fusions and crRNAs expressed from a multiplex single transcript (MST) or from transcripts encoding a single crRNA. RNA expression was measured by RT-qPCR and relative expression shown was calculated by comparison to a control sample in which no crRNA is expressed. (E) Schematic illustrating multiplex expression of three crRNAs each targeted to the same endogenous gene promoter in the same cell. (F) Activities of direct dLbCpf1-p65 or dLbCpf1-VPR fusions with sets of three crRNAs expressed from a multiplex transcript or from individual transcripts on the HBB, AR, or NPY1R endogenous gene promoters. Transcripts were measured in HEK293 cells using RT-qPCR with relative mRNA expression calculated by comparison to the control sample in which no crRNA is expressed. (G) Activities of dLbCpf1-DmrA(×4) and DmrC-VPR fusions or with dLbCpf1-DmrA(×4) and DmrC-p65 fusions with sets of three crRNAs expressed from a multiplex transcript or from individual transcripts on the HBB, AR, or NPY1R endogenous gene promoters. […]
# [2] = test system: NPY1R; test: RT-qPCR activation of endogenous NPY1R gene promoter in HEK293 cells; settings: single crRNA
# Experimental: as §1, §2
# [3] = test system: HBB; test: RT-qPCR activation of HBB in U2OS cells; settings: MST crRNAs and single crRNAs
# Excerpt: (A) Schematic of an expression cassette designed to express multiple gRNAs encoded on a single transcript. The arrows indicate cleavage sites being processed by the RNase activity of dLbCpf1. (B) Schematic illustrating multiplex expression of three crRNAs each targeted to a different endogenous gene promoter in a single cell. (C) Simultaneous activation of three endogenous human genes using crRNAs expressed from a multiplex transcript or from individual transcripts with dLbCpf1-VPR direct fusions (left panel), dLbCpf1-DmrA(×4) and DmrC-VPR fusions (middle panel), and dLbCpf1-DmrA(×4) and DmrC-p65 fusions (right panel). Transcripts were measured in HEK293 cells using RT-qPCR with relative mRNA expression calculated by comparison to the control sample in which no crRNA is expressed. […] RNA expression was measured by RT-qPCR and relative expression shown was calculated by comparison to a control sample in which no crRNA is expressed. […] Transcripts were measured in HEK293 cells using RT-qPCR with relative mRNA expression calculated by comparison to the control sample in which no crRNA is expressed. […] Transcripts were measured in HEK293 cells using RT-qPCR with relative mRNA expression calculated by comparison to the control sample in which no crRNA is expressed. […] Cells were collected at various time points and relative mRNA expression levels were measured by RT-qPCR compared to a negative control. […]
# [4] = test system: AR; test: RT-qPCR activation of endogenous AR gene promoter in HEK293 cells; settings: single crRNA
# Experimental: as §1
# (A) Schematic of an expression cassette designed to express multiple gRNAs encoded on a single transcript. The arrows indicate cleavage sites being processed by the RNase activity of dLbCpf1. (B) Schematic illustrating multiplex expression of three crRNAs each targeted to a different endogenous gene promoter in a single cell. […] Transcripts were measured in HEK293 cells using RT-qPCR with relative mRNA expression calculated by comparison to the control sample in which no crRNA is expressed. […] RNA expression was measured by RT-qPCR and relative expression shown was calculated by comparison to a control sample in which no crRNA is expressed. […] Transcripts were measured in HEK293 cells using RT-qPCR with relative mRNA expression calculated by comparison to the control sample in which no crRNA is expressed. […]
# [5] = bi-partite with dLbCpf1-DmrA fusions
# [6] = bi-partite with dLbCpf1-DmrA fusions, A/C heterodimerizer
# [7] = bi-partite, with dLbCpf1 fusions harboring two, three or four DmrA domains
molecule,measurement,setting,value
B1,dependence of maximal activation on A/C heterodimerizer drug,[1]; [5],dependent on the presence of A/C heterodimerizer drug
same,level of activation somewhat less than that obtained with DmrC-VPR,[1]; [5],~50%
same,fold activation of transcription,[1]; [6],~20 fold
same,activation of transcription,[1]; [7],could robustly activate transcription
same,dependence of maximal activation on A/C heterodimerizer drug,[2]; [5],dependent on the presence of A/C heterodimerizer drug
same,level of activation somewhat less than that obtained with DmrC-VPR,[2]; [5],~30%
same,fold activation of transcription,[2]; [6],~10 fold
same,activation of transcription,[2]; [7],could robustly activate transcription
same,gene activation (relative RNA expression),[3],even greater than in HEK293s
same,dependence of maximal activation on A/C heterodimerizer drug,[4]; [5],dependent on the presence of A/C heterodimerizer drug
same,fold activation of transcription,[4]; [6],~25 fold
same,activation of transcription,[4]; [7],could robustly activate transcription
